Assay results taken from patent US20150203577A1 (Chugai, published 2015).

Experiments:
mouse FcγRII = target: T1, mouse FcγRII (mouse, UniProt P08101 30-210); assay: SPR Biacore 4000, KD ratio
T1 construct: also called mFcγRII; mFcgRII
T1 sequence: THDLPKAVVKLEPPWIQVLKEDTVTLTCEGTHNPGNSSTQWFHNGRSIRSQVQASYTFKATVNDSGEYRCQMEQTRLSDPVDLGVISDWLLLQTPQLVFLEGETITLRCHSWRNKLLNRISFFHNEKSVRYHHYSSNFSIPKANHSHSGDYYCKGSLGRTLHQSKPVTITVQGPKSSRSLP
Procedure: (§1) Each altered antibody was analyzed for its interaction with each Fcγ receptor prepared above using Biacore T100 (GE Healthcare Japan Corp.), Biacore T200 (GE Healthcare Japan Corp.), Biacore A100, or Biacore 4000. The running buffer used was HBS-EP+ (GE Healthcare Japan Corp.). The assay temperature was set to 25° C. The sensor chips used were chips prepared by immobilizing Protein L (ACTIGEN or BioVision) onto Series S Sensor Chip CM5 (GE Healthcare Japan Corp.) or Series S Sensor Chip CM4 (GE Healthcare Japan Corp.) by the amine coupling method.
(§2) In order to calculate the KD value of each altered antibody for FcγR, kinetic analysis was conducted according to the following method: first, the antibody of interest was captured onto any of these chips and allowed to interact with mFcγR diluted with a running buffer. For the obtained sensorgram, the assay results were globally fit into the 1:1 Langmuir binding model using Biacore Evaluation Software to calculate an association rate constant ka (L/mol/s) and a dissociation rate constant kd (1/s). From these values, the dissociation constant KD (mol/L) was calculated.

mouse FcγRIII = target: T2, mouse FcγRIII (mouse, UniProt P08508 31-215); assay: SPR Biacore 4000, KD ratio
T2 construct: also called mFcγRIII; mFcgRIII
T2 chain: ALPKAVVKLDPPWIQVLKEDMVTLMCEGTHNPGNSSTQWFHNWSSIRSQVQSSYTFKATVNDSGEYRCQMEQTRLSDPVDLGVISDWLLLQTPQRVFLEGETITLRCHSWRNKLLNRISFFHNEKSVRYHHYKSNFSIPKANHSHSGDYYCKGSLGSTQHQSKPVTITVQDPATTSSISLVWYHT
Procedure: as §1, §2

B1: MB027 (antibody, mouse IgG1, kappa)
heavy: QVQLQESGPGLVKPSETLSLTCAVSGHSISHDHAWSWVRQPPGEGLEWIGFISYSGITNYNPSLQGRVTISRDNSKNTLYLQMNSLRAEDTAVYYCARSLARTTAMDYWGEGTLVTVSSAKTTPPSVYPLAPGSAAQTNSMVTLGCLVKGYFPEPVTVTWNSGSLSSGVHTFPAVLQSDLYTLSSSVTVPSSTWPSETVTCNVAHPASSTKVDKKIVPRDCGCKPCICTLPEVSSVFIFPPKPKDVLTITLTPKVTCVVVDISKDDPEVQFSWFVDDVEVHTAQTQPREEQFNSTFRSVSELPIMHQDWLNGKEFKCRVNSAAFPAPIEKTISKTKGRPKAPQVYTIPPPKEQMAKDKVSLTCMITDFFPEDITVEWQWNGQPAENYKNTQPIMDTDGSYFVYSKLNVQKSNWEAGNTFTCSVLHEGLHNHHTEKSLSHSPGK
light: not shown
notes: copies: 2 + 2
- relative mFcγRII-binding activity (mIgG1 = 1) (mouse FcγRII): 1.88 fold
- relative mFcγRIII-binding activity (mIgG1 = 1) (mouse FcγRIII): 1.55 fold

B2: MB031 (antibody, mouse IgG1, kappa)
heavy: QVQLQESGPGLVKPSETLSLTCAVSGHSISHDHAWSWVRQPPGEGLEWIGFISYSGITNYNPSLQGRVTISRDNSKNTLYLQMNSLRAEDTAVYYCARSLARTTAMDYWGEGTLVTVSSAKTTPPSVYPLAPGSAAQTNSMVTLGCLVKGYFPEPVTVTWNSGSLSSGVHTFPAVLQSDLYTLSSSVTVPSSTWPSETVTCNVAHPASSTKVDKKIVPRDCGCKPCICTQPEVSSVFIFPPKPKDVLTITLTPKVTCVVVDISKDDPEVQFSWFVDDVEVHTAQTQPREEQFNSTFRSVSELPIMHQDWLNGKEFKCRVNSAAFPAPIEKTISKTKGRPKAPQVYTIPPPKEQMAKDKVSLTCMITDFFPEDITVEWQWNGQPAENYKNTQPIMDTDGSYFVYSKLNVQKSNWEAGNTFTCSVLHEGLHNHHTEKSLSHSPGK
light: not shown
notes: copies: 2 + 2
- relative mFcγRII-binding activity (mIgG1 = 1) (mouse FcγRII): 1.99 fold
- relative mFcγRIII-binding activity (mIgG1 = 1) (mouse FcγRIII): 1.48 fold

B3: MB030 (antibody, mouse IgG1, kappa)
heavy: QVQLQESGPGLVKPSETLSLTCAVSGHSISHDHAWSWVRQPPGEGLEWIGFISYSGITNYNPSLQGRVTISRDNSKNTLYLQMNSLRAEDTAVYYCARSLARTTAMDYWGEGTLVTVSSAKTTPPSVYPLAPGSAAQTNSMVTLGCLVKGYFPEPVTVTWNSGSLSSGVHTFPAVLQSDLYTLSSSVTVPSSTWPSETVTCNVAHPASSTKVDKKIVPRDCGCKPCICTPPEVSSVFIFPPKPKDVLTITLTPKVTCVVVDISKDDPEVQFSWFVDDVEVHTAQTQPREEQFNSTFRSVSELPIMHQDWLNGKEFKCRVNSAAFPAPIEKTISKTKGRPKAPQVYTIPPPKEQMAKDKVSLTCMITDFFPEDITVEWQWNGQPAENYKNTQPIMDTDGSYFVYSKLNVQKSNWEAGNTFTCSVLHEGLHNHHTEKSLSHSPGK
light: not shown
notes: copies: 2 + 2
- relative mFcγRII-binding activity (mIgG1 = 1) (mouse FcγRII): 5.26 fold
- relative mFcγRIII-binding activity (mIgG1 = 1) (mouse FcγRIII): 2.27 fold

B4: MB028 (antibody, mouse IgG1, kappa)
heavy: QVQLQESGPGLVKPSETLSLTCAVSGHSISHDHAWSWVRQPPGEGLEWIGFISYSGITNYNPSLQGRVTISRDNSKNTLYLQMNSLRAEDTAVYYCARSLARTTAMDYWGEGTLVTVSSAKTTPPSVYPLAPGSAAQTNSMVTLGCLVKGYFPEPVTVTWNSGSLSSGVHTFPAVLQSDLYTLSSSVTVPSSTWPSETVTCNVAHPASSTKVDKKIVPRDCGCKPCICTMPEVSSVFIFPPKPKDVLTITLTPKVTCVVVDISKDDPEVQFSWFVDDVEVHTAQTQPREEQFNSTFRSVSELPIMHQDWLNGKEFKCRVNSAAFPAPIEKTISKTKGRPKAPQVYTIPPPKEQMAKDKVSLTCMITDFFPEDITVEWQWNGQPAENYKNTQPIMDTDGSYFVYSKLNVQKSNWEAGNTFTCSVLHEGLHNHHTEKSLSHSPGK
light: not shown
notes: copies: 2 + 2
- relative mFcγRII-binding activity (mIgG1 = 1) (mouse FcγRII): 1.83 fold
- relative mFcγRIII-binding activity (mIgG1 = 1) (mouse FcγRIII): 1.42 fold
